T1: hVEGF-A (8-109) (human, UniProt P15692 214-315)
T1 sequence (looked up): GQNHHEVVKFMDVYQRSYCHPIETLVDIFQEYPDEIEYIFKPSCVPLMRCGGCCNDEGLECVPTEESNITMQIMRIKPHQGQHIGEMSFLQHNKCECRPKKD

T2: LRP6 E1E2 protein (human, UniProt O75581 20-630, limits assumed)
T2 construct: domain: E1E2
T2 sequence (looked up): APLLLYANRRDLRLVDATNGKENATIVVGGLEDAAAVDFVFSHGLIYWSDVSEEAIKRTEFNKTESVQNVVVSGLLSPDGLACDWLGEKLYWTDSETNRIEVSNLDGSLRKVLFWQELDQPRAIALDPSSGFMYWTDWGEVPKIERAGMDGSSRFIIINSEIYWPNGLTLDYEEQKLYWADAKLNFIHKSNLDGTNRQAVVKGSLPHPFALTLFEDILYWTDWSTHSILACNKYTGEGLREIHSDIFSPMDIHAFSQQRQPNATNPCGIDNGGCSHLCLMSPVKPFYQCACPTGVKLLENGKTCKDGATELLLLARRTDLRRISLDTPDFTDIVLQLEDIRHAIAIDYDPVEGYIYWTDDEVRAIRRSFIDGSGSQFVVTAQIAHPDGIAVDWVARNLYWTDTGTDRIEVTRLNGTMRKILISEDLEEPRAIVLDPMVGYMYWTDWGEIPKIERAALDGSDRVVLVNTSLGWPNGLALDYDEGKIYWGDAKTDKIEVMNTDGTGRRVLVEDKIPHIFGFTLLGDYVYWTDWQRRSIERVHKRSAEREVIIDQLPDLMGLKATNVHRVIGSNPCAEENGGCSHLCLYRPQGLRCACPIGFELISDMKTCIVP


Target: T1, hVEGF-A (8-109)
Assay: spot phage ELISA
Protocol: After four rounds of binding selection, individual phage clones were picked and inoculated into 450 μl 2YT media containing 50 µg/ml Carbenecillin and M13-KO7 helper phage in 96-well blocks, which were grown at 37° C. overnight. […] The plates were washed and bound phage was detected with anti-M13-HRP followed by TMB substrate. In these assays, phage binding to BSA alone was tested in parallel to assess background binding. […] Positive clones were subjected to DNA sequence analysis.

Row | Binder | ELISA | S/N vs BSA
1 | GCPRILMRCKQDSDCLAGCVCGPNGFCG (also called wild type EETI-II) [EETI-II] | 0.01 | 1.11
2 | GCPAIQNWKEHPCKQDSDCLAGCVCSWWPSLCG (designed binder) [VEGF_CKP5] | 1.9 | 28.4
3 | GCGETVFEQFLWCKQDSDCLAGCVCGPNGFCG (designed binder) [VEGF_CKP2] | 3.2 | 48.1
4 | GCETDWYPHQIDCKQDSDCLAGCVCGPNGFCG (designed binder) [VEGF_CKP1] | 0.9 | 16.9
5 | GCHMMYDYCKQDSDCLAGCVCEMYDACG (designed binder) [VEGF_CKP3] | 3.1 | 42.9
6 | GCKKWQWWYMCKQDSDCLAGCVCYPWTECG (designed binder) [VEGF_CKP4] | 2.6 | 35.3
7 | GCQLMHPFWGCKQDSDCLAGCVCHWYRSCG (designed binder) [VEGF_CKP8] | 3.9 | 59.4
8 | GCQLMQPFWGCKQDSDCLAGCVCRWYNSCG (designed binder) [VEGF_CKP9.L5.7] | 1.4 | 18.9
9 | GCNIMLPFWGCSRDFDCLAGCVCQYYQSCG (designed binder) [VEGF_CKP9.54.44] | 2.4 | 34.4
10 | GCNIMLPFWGCNRDFLCLAGCVCQYYQSCG (designed binder) [VEGF_CKP9.54.48] | 2.5 | 34.9
11 | GCNIMLPFWGCGVDYLCLAGCVCQYYQSCG (designed binder) [VEGF_CKP9.54.16] | 2.4 | 30.8
12 | GCNIMLPFWGCGWDQFCLAGCVCQYYQSCG (designed binder) [VEGF_CKP9.54.51] | 2.5 | 44.5
13 | GCNIMLPFWGCSGDFACLAGCVCQYYQSCG (designed binder) [VEGF_CKP9.54.64] | 2.2 | 22.4
14 | GCQLMQPFWGCKQDSDCLAGCVCRWYHSCG (designed binder) [VEGF_CKP9.L5.43] | 0.9 | 13.6
15 | GCNIMLPFWGCGTNFLCLAGCVCQYYQSCG (designed binder) [VEGF_CKP9.54.31] | 2.3 | 32.5
16 | GCNIMLPFWGCGWSMDCLAGCVCQYYQSCG (designed binder) [VEGF_CKP9.54.76] | 2.7 | 42.2
17 | GCNIMLPFWGCGKDFHCLAGCVCQYYQSCG (designed binder) [VEGF_CKP9.54.56] | 2.3 | 35.8
18 | GCNIMLPFWGCGYDLQCLAGCVCQYYQSCG (designed binder) [VEGF_CKP9.54.87] | 2.4 | 26.1
19 | GCNIMLPFWGCGPELNCLAGCVCQYYQSCG (designed binder) [VEGF_CKP9.54.12] | 2.4 | 38.8
20 | GCNIMLPFWGCQADYACLAGCVCQYYQSCG (designed binder) [VEGF_CKP9.54.14] | 2.5 | 23.5
21 | GCNIMLPFWGCGKELNCLAGCVCQYYQSCG (designed binder) [VEGF_CKP9.54.69] | 2.5 | 21.7

Target: T1, hVEGF-A (8-109)
Assay: spot phage ELISA
Remark: another data set of the same source

Row | Binder | binding result
22 | GCNIMLPFWGCGRDFECLAGCVCQYYQSCGWDY (designed binder) [9.54.90-3x9] | binds
23 | GCNIMLPFWGCGRDFECLAGCVCQYYQSCGWPH (designed binder) [9.54.90-3x13] | binds
24 | GCNIMLPFWGCGRDFECLAGCVCQYYQSCGDLV (designed binder) [9.54.90-3x91] | binds
25 | GCNIMLPFWGCGRDFECLAGCVCQYYQSCGYLS (designed binder) [9.54.90-3x88] | binds
26 | GCNIMLPFWGCGRDFECLAGCVCQYYQSCGEHK (designed binder) [9.54.90-3x42] | binds
27 | GCNIMLPFWGCGRDFECLAGCVCQYYQSCGTFQ (designed binder) [9.54.90-3x10] | binds
28 | GCNIMLPFWGCGRDFECLAGCVCQYYQSCGPHQ (designed binder) [9.54.90-3x33] | binds
29 | GCDVLQPYWGCGPDIDCLSNCICHWYNSCGRL (designed binder) [63.12.12.M5L.2x21] | binds
30 | GCDVLQPYWGCGPDIDCLSNCICHWYNSCGQF (designed binder) [63.12.12.M5L.2x69] | binds
31 | GCDVLQPYWGCGPDIDCLSNCICHWYNSCGPL (designed binder) [63.12.12.M5L.2x48] | binds
32 | GCDVLQPYWGCGPDIDCLSNCICHWYNSCGPT (designed binder) [63.12.12.M5L.2x30] | binds
33 | GCDVLQPYWGCGPDIDCLSNCICHWYNSCGEQ (designed binder) [63.12.12.M5L.2x12] | binds
34 | GCDVLQPYWGCGPDIDCLSNCICHWYNSCGWK (designed binder) [63.12.12.M5L.2x77] | binds
35 | GCDVLQPYWGCGPDIDCLSNCICHWYNSCGSL (designed binder) [63.12.12.M5L.2x29] | binds
36 | GCDVLQPYWGCGPDIDCLSNCICHWYNSCGRT (designed binder) [63.12.12.M5L.2x2] | binds
37 | GCDVLQPYWGCGPDIDCLSNCICHWYNSCGDE (designed binder) [63.12.12.M5L.2x25] | binds

Target: T2, LRP6 E1E2 protein
Assay: spot phage ELISA

Row | Binder | ELISA | S/N vs BSA
38 | GCMNHVKARRCKQDSDCLAGCVCGPNGFCG (designed binder) [LRP6_CKP3] | 2.93 | 40.2
39 | GCRGNIIKCKQDSDCLAGCVCNESRGCG (designed binder) [LRP6_CKP8] | 3.23 | 37.6
40 | GCVNKIKGCKQDSDCLAGCVCGVEGRCG (designed binder) [LRP6_CKP5] | 3.04 | 35.7
41 | GCRSVNKICKQDSDCLAGCVCGSSRNCG (designed binder) [LRP6_CKP4] | 2.82 | 25.4
42 | GCRSGNTIRKRECKQDSDCLAGCVCGGPGGCG (designed binder) [LRP6_CKP9] | 2.97 | 37.6
43 | GCASSNSIRQGWCKQDSDCLAGCVCGPKSNCG (designed binder) [LRP6_CKP10] | 3.29 | 37.4
44 | GCVNRVRGCKQDSDCLAGCVCSGGRDCG (designed binder) [LRP6_CKP2] | 3.41 | 41.6
45 | GCRTNRVKGGCKQDSDCLAGCVCGPNGFCG (designed binder) [LRP6_CKP1] | 3.23 | 45.5
46 | GCRANRVSGRCKQDSDCLAGCVCGPNGFCG (designed binder) [LRP6_CKP18] | 1.67 | 18.3
47 | GCVSNRVNKGCKQDSDCLAGCVCGPNGFCG (designed binder) [LRP6_CKP7] | 3.3 | 29

Source: patent US20200325187A1 (Genentech, published 2020)
